The values below come from patent publication US20240116990A1, “Compositions and Methods of Treatment Using CRRL 191” (Mayo Foundation for Medical Education and Research, priority 2022, published 2024).

Usually Kd stands for a measure of binding affinity in units of concentration.

The test system of experiment [1] is Spontaneously Hypertensive Rats (SHR). The experiment in a line: Plasma cGMP in spontaneously hypertensive rats. It is filed as in vivo, rat. As to conditions: iv infusion, FIG. 9A. The protocol: All rat experiments are conducted following the Animal Welfare Act and the protocol is approved by the Mayo Clinic Institutional Animal Care and Use Committee (IACUC). […] Rats are included only if they are deemed healthy by the Institutional Veterinarian Department. Investigators who conduct the in vivo study are not blinded to treatments, but biochemical analysis is performed by a different investigator who is blinded to treatment.
On the day of the experiment, SHR rats are anesthetized with inactin (120 mg/kg, intraperitoneal injection, Sigma, St. Louis, MO). Rats are then kept on a heating pad at 38° C. to maintain a normal body temperature for the entire study. Vascular and bladder cannulation procedures are conducted. Briefly, a polyethylene-50 (PE-50) tube catheter is placed into one jugular vein for peptide infusion and another PE-50 tube is placed into the carotid artery for blood pressure (BP) monitoring (Sonometrics, London, Ontario, Canada) and blood sampling. After instrumentation, a 15-minute equilibrium period follows, and a 30-minute pre-infusion period is performed to collect baseline urine samples.
Four blood samples are collected to determine circulating cGMP levels: at baseline, before the end of drug infusion, at the middle of the washout clearance period, and before the end of the washout clearance period. Any blood loss in the rats is replaced with an equal volume of saline. BP is monitored and recorded every 15 minutes beginning after the initiation of peptide infusion. All collected blood are stored at −80° C. until assayed.
For the biochemical analysis, plasma cGMP levels are measured with a cGMP ELISA kit (Enzo Life Sciences, Farmingdale, NY).

Experiment [2] deals with T1, extracellular domain of GC-A recombinant protein with a C-terminal His-tag (human), P16066.
T1 chain: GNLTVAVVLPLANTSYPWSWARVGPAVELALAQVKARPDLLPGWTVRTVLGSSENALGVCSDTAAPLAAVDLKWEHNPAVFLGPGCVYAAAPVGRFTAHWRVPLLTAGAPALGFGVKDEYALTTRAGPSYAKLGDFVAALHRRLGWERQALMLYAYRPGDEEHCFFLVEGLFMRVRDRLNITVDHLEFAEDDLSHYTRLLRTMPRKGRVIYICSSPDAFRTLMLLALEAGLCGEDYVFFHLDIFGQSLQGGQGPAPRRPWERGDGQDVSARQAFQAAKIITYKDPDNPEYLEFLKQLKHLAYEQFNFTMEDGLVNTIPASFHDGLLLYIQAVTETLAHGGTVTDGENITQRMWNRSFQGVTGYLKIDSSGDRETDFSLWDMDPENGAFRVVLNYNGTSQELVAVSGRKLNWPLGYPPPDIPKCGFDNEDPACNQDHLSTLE
The experiment in a line: SPR (BI-4500, 25 C); His-tagged GC-A extracellular domain immobilized on Ni-NTA chip; CRRL 191 injected at 0.125, 0.25, 0.5, 1 and 2 nM.

Experiment [3] addresses T2, human GC-A (human), P16066.
T2 chain: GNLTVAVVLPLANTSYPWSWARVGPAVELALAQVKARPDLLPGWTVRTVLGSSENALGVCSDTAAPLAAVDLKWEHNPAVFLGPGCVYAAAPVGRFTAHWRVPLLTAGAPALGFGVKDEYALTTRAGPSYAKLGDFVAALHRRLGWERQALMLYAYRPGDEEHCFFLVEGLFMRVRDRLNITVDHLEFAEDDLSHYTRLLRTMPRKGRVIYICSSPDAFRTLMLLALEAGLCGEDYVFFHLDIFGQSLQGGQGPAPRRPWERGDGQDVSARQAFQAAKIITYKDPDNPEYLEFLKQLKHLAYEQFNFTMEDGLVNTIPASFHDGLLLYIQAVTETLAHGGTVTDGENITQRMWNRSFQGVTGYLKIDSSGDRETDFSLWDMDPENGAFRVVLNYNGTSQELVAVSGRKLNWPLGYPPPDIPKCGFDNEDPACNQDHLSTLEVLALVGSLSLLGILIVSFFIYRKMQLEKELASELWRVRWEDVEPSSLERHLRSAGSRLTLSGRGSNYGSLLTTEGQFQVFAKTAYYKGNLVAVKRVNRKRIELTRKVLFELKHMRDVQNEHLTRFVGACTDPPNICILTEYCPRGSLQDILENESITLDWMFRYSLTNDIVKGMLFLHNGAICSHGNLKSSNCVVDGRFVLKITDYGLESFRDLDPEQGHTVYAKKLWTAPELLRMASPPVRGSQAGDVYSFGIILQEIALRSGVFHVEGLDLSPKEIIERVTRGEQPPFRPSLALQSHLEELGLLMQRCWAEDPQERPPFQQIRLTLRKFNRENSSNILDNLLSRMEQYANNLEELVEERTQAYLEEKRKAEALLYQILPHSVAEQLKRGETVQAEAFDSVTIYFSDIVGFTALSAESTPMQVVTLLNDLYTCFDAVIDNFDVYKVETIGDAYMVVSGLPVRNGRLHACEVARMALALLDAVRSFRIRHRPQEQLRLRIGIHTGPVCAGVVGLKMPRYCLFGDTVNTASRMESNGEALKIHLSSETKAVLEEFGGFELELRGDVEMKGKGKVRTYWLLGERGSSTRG
Nature of the experiment: cell-based or functional assay.

The target of experiment [4] is T1, extracellular domain of GC-A …. Nature of the experiment: SPR (BI-4500), His-tagged GC-A extracellular domain on Ni-NTA chip, peptide as analyte, 25 C.

On to `CC[C@H](C)[C@@H]1NC(=O)[C@H](CCCNC(=N)N)NC(=O)[C@H](CC(=O)O)NC(=O)[C@H](CCSC)NC(=O)[C@H](CCCNC(=N)N)NC(=O)CNC(=O)CNC(=O)[C@H](Cc2ccccc2)NC(=O)[C@@H](NC(=O)[C@H](CO)NC(=O)[C@H](CO)NC(=O)[C@H](CCCNC(=N)N)NC(=O)[C@H](CCCNC(=N)N)NC(=O)[C@H](CC(C)C)NC(=O)[C@@H](N)CO)CSSC[C@@H](C(=O)N[C@@H](CC(N)=O)C(=O)N[C@@H](CO)C(=O)N[C@@H](Cc2ccccc2)C(=O)N[C@@H](CCCNC(=N)N)C(=O)N[C@@H](Cc2ccc(O)cc2)C(=O)O)NC(=O)CNC(=O)[C@H](CC(C)C)NC(=O)CNC(=O)[C@H](CO)NC(=O)[C@H](CCC(N)=O)NC(=O)[C@H](C)NC(=O)CNC1=O` [ANP, reference compound], for which, in experiment [1], the “plasma cGMP levels” value is on record as “increase”.
As for RALLTAPRSLRRSSCFGHKIDRINHVSNLGCNSFRYRITAREDKQGWA (modifications not checked) [CRRL 191], in experiment [2], the dissociation constant Kd was 128 pM. In experiment [3], this molecule showed an EC50 of cGMP production, HEK293 GC-A cells, 10 min stimulation of 480 pM; an intracellular cGMP (Mean) at 10^-6 M peptide of 135; an intracellular cGMP (Mean) at 10^-7 M peptide of 141; an intracellular cGMP (Mean) at 10^-8 M peptide of 152. Further, in experiment [3], the intracellular cGMP (Mean) at 10^-9 M peptide came to 89.9, the intracellular cGMP (Mean) at 10^-10 M peptide came to 35.6, the intracellular cGMP (Mean) at 10^-12 M peptide worked out at 2.57 and the intracellular cGMP (Mean) at 10^-14 M peptide was found to be 3.07. The Kd in experiment [4] stood at 128 pM.
